Experimental data reported in publication PMC9073325.

Substrate: Nc1ncnc2c1ncn2[C@@H]1O[C@H](COP(=O)(O)OP(=O)(O)OP(=O)(O)O)[C@@H](O)[C@H]1O
Assay: purified protein
Settings: pH 7.0; 25.0 °C

B1: SOBIR1-KD (Arabidopsis thaliana) (protein)
chain: SIFSPLIKKAEDLAFLENEEALASLEIIGRGGCGEVFKAELPGSNGKIIAVKKVIQPPKDADELTDEDSKFLNKKMRQIRSEINTVGHIRHRNLLPLLAHVSRPECHYLVYEYMEKGSLQDILTDVQAGNQELMWPARHKIALGIAAGLEYLHMDHNPRIIHRDLKPANVLLDDDMEARISDFGLAKAMPDAVTHITTSHVAGTVGYIAPEFYQTHKFTDKCDIYSFGVILGILVIGKLPSDEFFQHTDEMSLIKWMRNIITSENPSLAIDPKLMDQGFDEQMLLVLKIACYCTLDDPKQRPNSKDVRTMLSQIKH
Which results are given for B1?
Km: 19.92 ± 0.69 µM; kcat: 0.660 ± 0.006 s⁻¹
